Experimental data published in PMC7311308.
pKd: −log10 of the molar value.

Biological target: CD46-D4

Ad26 knob (domain or fragment)
pKd: 6.92
